The values below come from PMC6297170.

The test deals with lysine decarboxylase CadA from Vibrio vulnificus (Vibrio vulnificus). Briefly: SEC; Sephacryl S-300 HR column on FPLC, 0.5 mL/min, 50 mM MES/100 mM NaCl pH 6.5; standards IgM 970 kDa, thyroglobulin 669 kDa, ferritin 440 kDa, catalase 232 kDa, aldolase 140 kDa; self-association of the purified enzyme. A general note: Size exclusion chromatography separates by hydrodynamic size, large species first.

As a reminder, the stoichiometry N is a count of units in the complex or per binding partner. Regarding “lysine decarboxylase CadA from Vibrio vulnificus (from UniProt A0A3Q0L4X5 1-797) (enzyme)”, the stoichiometry N is 10.
